Experimental findings from article PMC5348300 (Journal of the American Chemical Society, 2017) are described below.

The series deals with the molecule itself. Description: crystal structure.

B1: coproheme decarboxylase (HemQ) from Geobacillus stearothermophilus (enzyme)
chain: MSEAAQTLDGWYCLHDFRTIDWSAWKTLPNEEREAAISEFLALVDQWETTESEKQGSHAVYTIVGQKADILFMILRPTLDELHEIETALNKTKLADYLLPAYSYVSVVELSNYLASGSEDPYQIPEVRRRLYPILPKTNYICFYPMDKRRQGNDNWYMLSMEQRRELMRAHGMTGRKYAGKVTQIITGSVGLDDFEWGVTLFSDDALQFKKLVYEMRFDEVSARFGEFGSFFVGTRLPMENVSSFFHV
What is called stoichiometry N is a count of units in the complex or per binding partner. Take B1: the “stoichiometry N” value was 5.
